In patent US20260201030A1, “ANTIBODY, ANTIBODY-DRUG CONJUGATE THEREOF AND USE THEREOF” (EVOPOINT BIOSCIENCES CO., LTD., priority 2021, published 2026):

Target: T1, human Claudin18.2 (Homo sapiens, UniProt P56856)
T1 construct: expressed in transfected cells
Test: Cell-based ELISA affinity of murine antibodies on HEK293T-Claudin18.2 (human) cells
Type: binding
Method: The affinity of the anti-human Claudin18.2 murine monoclonal antibodies was evaluated by cell-based ELISA. The experimental procedures were as follows: The day before the experiment, HEK293T-Claudin18.2 (human) cells were plated in a 96-well plate at 5×10^4 cells/well. On the day of the experiment, the supernatant was removed, the cells in each well were washed once with 300 μL of PBS, and 100 μL of 4% paraformaldehyde was added to each well for fixation at room temperature for 20 min. Paraformaldehyde was then removed, and the cells in each well were washed twice with 300 μL of PBS. 100 μL of 2% BSA (in PBS) was added to each well, and the mixture was blocked at 37° C. for 2 h. After removing the blocking solution, each antibody subjected to gradient dilution (diluted with 2% BSA (in PBS), starting at […], in a 3-fold gradient, for a total of 11 concentration points) was added to the plate at 100 μL/well, and the mixture was incubated at 37° C. for 2 h. The supernatant was removed, and the cells in each well were washed three times with 300 μL of PBST. 100 μL of an anti-mouse IgG HRP secondary antibody (Jackson, cat #115-035-003) in 2% BSA was added to each well, and the mixture was incubated at 37° C. for 1 h. The secondary antibody was then removed, and the cells in each well were washed five times with 300 μL of PBST, followed by the addition of 100 μL of a TMB substrate (Huzhou InnoReagents Co., Ltd.) per well for color development for 5-20 min. The reaction was stopped by adding 50 μL of 2 N HCl to each well, and OD450 nm values were read on a microplate reader (manufacturer: MD, model: SpectraMax). The values obtained were plotted by GraphPad Prism to calculate the EC50 value.

Row | Molecule | Affinity HEK293T-18.2 EC50
1 | 32F7A6: anti-human Claudin18.2 murine monoclonal antibody, VH SEQ ID NO: 52, VL SEQ ID NO: 53 (antibody, V domains shown) VH: QIQLVQSGPELRKPGETVKISCKASGYTFTAYTMGWVKQAPGKGLEWMAWINTYSGVPTYAADFKGRFAFSLETSASTAYLLINNLKNEDTATYFCARGVRGNSMDYWGQGTSVTVSS VL: DIVETQSPSSLTVTVGERVTLSCKSSQSLLNSGNQRNYLTWSQQKPGQPPKLLIYWASTRESGVPNRFTGGGSGTYFTLTISSVQVEDLAVYYCQNTYSFPFTFGTGTKLEIK | 2.399 ng/mL
2 | 25C7A5: anti-human Claudin18.2 murine monoclonal antibody, VH SEQ ID NO: 21, VL SEQ ID NO: 22 (antibody, V domains shown) VH: EVQLQQPGAELVKPGTSVKLSCKASGYTFTNYWLHWVRQRPGQGLEWIGMMHPISGSSNNNERFKSKATLTVDKSSTTAYMQLSRMTSEDSAVYYCARGLLSAMDYWGQGTSVTVSS VL: CIVLTQSPKSMSMSVGERVTLSCKASENVKTYVSWYQQRPEQSPKLLIYEASNRYTGVPDRFTGSGSATVFTLTISSVQTEDLANYFCGQTYSFPPTFGSGTKLEIK | 10.49 ng/mL
3 | 40G11H2: anti-human Claudin18.2 murine monoclonal antibody, VH SEQ ID NO: 50, VL SEQ ID NO: 51 (antibody, V domains shown) VH: EVQLQQSGAELARPGASVKLSCKASGYTFTSYGIRWVKQRTGQGLEWIGEIYPRGGNTYYDEKFKGKATLTADKSSSTAYMGLRSLTSEDSAVYFCARADYGNSFAYWGQGTLVTVSA VL: DIVMTQSPSSLTVTAREKVTMSCKSSQSLLNSGNQKNYLTWYHQKPGQPPKLLIYWASTRESGVPDRFTGSGSGTDFTLTISSVQAEDLAVYFCQNAYFYPFTFGTGTKLEIK | 7.376 ng/mL
4 | 2D3A11: anti-human Claudin18.2 murine monoclonal antibody, VH SEQ ID NO: 23, VL SEQ ID NO: 24 (antibody, V domains shown) VH: EVQLQQSGPELVKPGASVRMSCKASGYTFTSYVVHWVKQKPGQGLEWIGYINPYNADSKYNERFKGKATLTSDKSSNSAYMELSSLTSEDSAVYYCSRSYYGNSFDVWGAGTTVTVSS VL: DIVMTQSPSSLTVTTGEKVTMSCKSSQSLLNSGNQKNYLTWYQQKPGQSPKLLFFWASTRQSGVPDRFTGSGSGTYFTLTISSVQAEDLAVYYCQNDYYFPFTFGTGTKLEIK | 8.143 ng/mL
5 | 8H11A10: anti-human Claudin18.2 murine monoclonal antibody, VH SEQ ID NO: 44, VL SEQ ID NO: 45 (antibody, V domains shown) VH: QVQLKESGPVLVAPSQSLSITCTVSGFSLTNYGVHWVRQPPGKGLEWLGVIWSGGRTNYNSALMSRLSISKDNSKSQVFLKMNSLQTDDTAMYYCAKRDGIYGDYWGQGTSVTVSS VL: DIVETQSPSSLTVTAGEKVTMSCKSSQSLLNSGNQKNYLTWYQQKPGQSPKLLIYWASTRESGVPDRFTGSGFGTDFTLTISSVQAEDLAVYYCQNDYIYPLTFGAGTKLELK | 12.32 ng/mL
6 | 23F2F2: anti-human Claudin18.2 murine monoclonal antibody, VH SEQ ID NO: 48, VL SEQ ID NO: 49 (antibody, V domains shown) VH: QVQLKESGGGLVQPGGSMKLSCAASGFTFSDAWMNWVRQSPEKGLEWVAEIRNKADYHATHYVESVTGRFTISRDDSKSSVYLQMNRLRAEDTGIYYCTRNYGSRFDYWGQGTTLTVSS VL: DIVETQSPSSLTVTAGEKVTMSCKSSQSLLNSGNQRNYLTWYQQKPGHPPKLLIYWASTRESGVPDRFTGSGSGTDFTLTVTSVQAEDLAVYYCQNDYFYPLAFGTGTKLELK | 6.015 ng/mL
